Reference: patent US10809222B2, “Opioid detection based on high quality graphene transistor arrays and a synthetic mu receptor” (priority 2013, dated 2020)

Columns and labels:
mu receptor protein = mu receptor protein (Homo sapiens, UniProt P35372); experiment: GFET sensor response (Dirac voltage shift) of mu receptor protein-functionalized graphene transistors; conditions: 10 micrograms/mL, negative control of specificity, 15-25 devices
Description: First, the graphene was functionalized through the use of a diazonium salt. The carboxylate group was then activated by EDC and stabilized with NHS. Mu receptor protein displaced the NHS to form an amide bond.
The graphene transistor was functionalized by incubation at 55° C. in a water solution of carboxylated diazonium salt (2.0 mg/mL in DI water). Carboxylic acid groups from the diazonium functionalization were activated and stabilized with 1-ethyl-3-[3-dimethylaminopropyl]carbodiimide hydrochloride/sulfo-Nhydroxysuccinimide (EDC/NHS) at an EDC concentration of 9 mg/15 mL MES buffer and NHS concentration of 20 mg/15 mL MES buffer. NHS molecules were displaced by Mu receptor proteins (3 micrograms/mL) in buffer (40 microM NaPi/260 microM NaCl/0.00004% SDS/10 microM 2-ME/pH 7.0), forming a covalent amide bond between the protein and the graphene. The devices were then electrically characterized and then their sensitivity to opioid exposure was measured.
The source-drain current value is at a minimum at the gate voltage value at which conductance is at a minimum. The increase in Dirac voltage was defined as the sensing response (change in signal, i.e. electronic characteristic) for this ligand. […] The inset is a magnified view of this shift in the Dirac voltage.
Each concentration was tested against 15-30 devices. […]

mu-receptor protein = experiment: Raman spectroscopy optical readout of ligand binding on mu-receptor-protein-functionalized GFET; parameters: species or system human
From the text: Raman spectroscopy of the graphene layer in a functionalized GFET was used as an optical readout method to detect ligand binding. […]
A similar shift is seen in the 2D peak in FIG. 8c. No shifts were seen after exposure to pure buffer as a negative control, in FIGS. 8d and 8e.

[1] = Secondary structure content by circular dichroism; assay type: physicochemical
From the text: The CD spectra indicated predominantly helical structures with a helical secondary structure content of ˜48% (estimations based on the molar ellipticity over the range 205 to 260 nm). The comparison of the helical content with that of the native human MUR expressed in yeast system in the presence of high concentration of detergent (0.1% SDS) is presented in Table 1.

[2] = system: human μ opioid receptor expressed in HEK293 cells; experiment: Competitive TR-FRET (HTRF) binding competition assay with native MUR and naltrexone-derived fluorescent antagonist; conditions: methodology described for FIG. 16
From the text: FIG. 16. […] Data is used to calculate HTRF ratios, and represent the mean±standard error of mean of quadruplicates. ΔF is used for the comparison of different runs of the same assay which reflects the signal to background of the assay. ΔF=[(Ratiosample−Ratiobackgroud)/Ratiobackgroud](%).
A recently developed methodology which uses a fluorescently labeled ligand and the native MUR was used to investigate the ligand-binding capabilities of the water-soluble receptors.

[3] = Thermostability by circular dichroism; conditions: 5 mM sodium phosphate; for melting point (CD thermostability): 0.01% SDS, pH=7.0
Description: The secondary structure of the water-soluble variant was determined through circular dichroism (CD). Circular dichroism (CD) spectra were recorded by using CD Spectrometer (Chirascan, AppliedPhotophysics Limited, Leatherhead, United Kingdom) with a scan speed of 1 nm/s and 1 mm path length. Corresponding blanks were used for calibration for each assay and subtracted from raw data. Two data sets were recorded and averaged to increase the signal-to-noise ratio. The CDNN CD spectra deconvolution software was utilized to determine the secondary structure content of the proteins. […] Absorbance was maintained lower than 1.0 to ensure sufficient light transmission. The temperature-dependence curve was plotted using GraphPad Prism® (version 5, GraphPad Software, Inc. La Jolla).

[4] = Effects of denaturant (urea) and reducing agent (2-ME) by CD and intrinsic tryptophan fluorescence; assay type: physicochemical; conditions: normalized to no denaturant
Description: CD and intrinsic tryptophan fluorescence were used to probe disulfide bond formation in the water-soluble variant. […] Even in 8 M urea, the protein retains some helical structure (Table 2). Upon addition of 2-ME, both the molar ellipticity and fluorescence further decreased, becoming more pronounced at the higher concentration of the reducing agent (200 mM). Thus the presence of an intramolecular disulfide bond is corroborated in the case of wsMUR-TM.

[5] = pH 7.0 + 0.1% SDS, expressed in yeast system

mu receptor protein, sequence (P35372 whole entry, looked up): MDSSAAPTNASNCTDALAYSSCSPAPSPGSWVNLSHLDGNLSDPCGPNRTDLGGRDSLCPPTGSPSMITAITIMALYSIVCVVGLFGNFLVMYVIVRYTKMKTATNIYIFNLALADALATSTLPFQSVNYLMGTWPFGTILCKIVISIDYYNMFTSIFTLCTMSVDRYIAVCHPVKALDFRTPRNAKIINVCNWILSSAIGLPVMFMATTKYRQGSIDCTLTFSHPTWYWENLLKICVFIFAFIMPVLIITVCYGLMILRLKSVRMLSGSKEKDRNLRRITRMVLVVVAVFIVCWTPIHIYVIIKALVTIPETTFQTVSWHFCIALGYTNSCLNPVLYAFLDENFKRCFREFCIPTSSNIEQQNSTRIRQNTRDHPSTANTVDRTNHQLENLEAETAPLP

Molecule: CCOC(=O)c1ncn2c1CN(C)C(=O)c1cc(F)ccc1-2 [Flumazenil]
- sensor response (Dirac voltage shift) (mu receptor protein): −0.2±0.4 V

Molecule: O=C1CC[C@@]2(O)[C@H]3Cc4ccc(O)c5c4[C@@]2(CCN3CC2CC2)[C@H]1O5 [naltrexone]
- Average 2D peak position after analyte (mu-receptor protein; 10 ng/mL): 2683.19 ± 0.20
- Average G peak position after analyte (mu-receptor protein; 10 ng/mL): 1591.61 ± 0.13
- Average 2D peak position after analyte (mu-receptor protein; 10 micrograms/mL): 2685.83 ± 0.26
- Average G peak position after analyte (mu-receptor protein; 10 micrograms/mL): 1594.39 ± 0.15

Molecule: Native MUR: native human μ receptor expressed in yeast system, in 0.1% SDS [reference compound]
- Helix content (CD 205-260 nm) [1, 5]: 40.6%
- Others content (CD 205-260 nm) [1, 5]: 40.5%
- Turn content (CD 205-260 nm) [1, 5]: 18.9%

B1: wsMUR-TM+7mut: second wsMUR recombinant protein (protein)
chain: SMITAIKILEEYKKVCEEGRKGNKLVMEVIVRYTKMKTATNIYIFNLAKADALAESTLPFQSVNKLMGTWPFGTILCKKVISIDYYNMFTSIFTLCTMSVDRYIAVCHPVKALDFRTPRNAKEHNEKNWKLSSEIGKPVEKRATTKYRQGSIDCTLTFSHPTWYWEDKLKDTVFKKAFEEPVKVIKECYGLMILRLKSVRMLSGSKEKDRNLRRITRMVLVVVEVFIKCWTEIHKYVKEGKL
- binding activity / affinity with naltrexone [2]: binding activity was also observed

B2: wsMUR-TM: transmembrane-only water-soluble human mu receptor variant (protein)
chain: SMITAIKIHEEYKKVCEEGKKGNKLVMEVIVRYTKMKTATNIYIFNLAKADALAESTLPFQSVNKLMGTWPFGTILCKKVISIDYYNMFTSIFTLCTMSVDRYIAVCHPVKALDFRTPRNAKEENEKNWKLSSEIGKPVEKKATTKYRQGSIDCTLTFSHPTWYWEDKLKDEVFKKAFEEPVKKIKECYGLMILRLKSVRMLSGSKEKDRNLRRITRMVLVVVEVFIKCWTEIHKYVKEGKLVTIPETTFQTVSWHECIAKGYKNSCENPKLYEELDENFKRCFREFC
- Helix content (CD 205-260 nm) ([1]; pH 7.0 in NaHPO4): 48.0%
- Others content (CD 205-260 nm) ([1]; pH 7.0 in NaHPO4): 37.4%
- Turn content (CD 205-260 nm) ([1]; pH 7.0 in NaHPO4): 14.6%
- temperature at which ellipticity (222 nm) starts to be lost significantly ([3]; pH=7.0, 10 to 90° C.): ~62 °C
- melting point (CD thermostability) ([3]; absence of cholesterol): 82.9 °C
- melting point (CD thermostability) ([3]; presence of cholesterol): 89.3 °C
- Fluorescence Peak Intensity (%; 300-350 nm) ([4]; Urea (8M) 2-ME (25 mM)): 23.9%
- Molar Ellipticity (%; 222 nm) ([4]; Urea (8M) 2-ME (25 mM)): 25.1%
- Fluorescence Peak Intensity (%; 300-350 nm) ([4]; Urea (8M) 2-ME (200 mM)): 4.5%
- Molar Ellipticity (%; 222 nm) ([4]; Urea (8M) 2-ME (200 mM)): 0.0%
- Fluorescence Peak Intensity (%; 300-350 nm) ([4]; Urea (8M)): 28.4%
- Molar Ellipticity (%; 222 nm) ([4]; Urea (8M)): 40.0%
